Measured values taken from article PMC4045705 (Chembiochem : a European journal of chemical biology, 2014).

Molecular target: phosphorylated extracellular regulated kinase 2 (pERK2) (UniProt P28482 1-360, phosphorylated (sites not given))
Test: SPR

phosphorylated extracellular regulated kinase 2 (pERK2), sequence (P28482 whole entry): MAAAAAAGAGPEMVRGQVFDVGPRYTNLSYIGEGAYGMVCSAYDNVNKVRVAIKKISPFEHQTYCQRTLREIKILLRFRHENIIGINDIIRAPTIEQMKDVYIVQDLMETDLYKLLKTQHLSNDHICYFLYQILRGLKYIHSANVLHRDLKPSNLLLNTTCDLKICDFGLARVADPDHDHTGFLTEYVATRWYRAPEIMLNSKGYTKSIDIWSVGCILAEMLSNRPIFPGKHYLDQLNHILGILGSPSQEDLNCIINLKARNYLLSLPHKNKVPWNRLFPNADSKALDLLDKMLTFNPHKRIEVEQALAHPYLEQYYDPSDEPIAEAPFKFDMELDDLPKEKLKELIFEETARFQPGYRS

Kd: 190 nM
B1: synthetic DARPin pE59 (designed binder)
chain: GGGGGSDLGKKLLEAARAGQDDEVRILXANGADVNALDEDGLTPLHLAAQLGHLEIVEVLLKYGADVNAEDNFGITPLHLAAIRGHLEIVEVLLKHGADVNAQDKFGKTAFDISIDNGNEDLAEILQKLN
modifications: norleucine (Nle) at 28 in place of Met; C-terminal carboxamide (CONH2) at 130Asn
